# Measurements: patent publication US20220275350A1 (MAX PLANCK GESELLSCHAFT ZUR F RDERUNG DER WISSENSCHAFTEN E V, published 2022)
# Target: T1, cpHaloΔ9mer
# T1 construct: also called cpHalo_9mer; cpHalo156-141
# Test: ITC; 9mer peptide (~30 mM) titrated into 0.6 mM cpHaloΔ9mer; three independent measurements; one-site model
# Procedure: Heat of dilution of the peptide was subtracted prior to the analysis. Kd was calculated from three independent measurements, error represents standard deviation.
# This maximal concentration of peptide was titrated against a 0.6 mM cpHaloΔ9mer (FIG. 1).
# T1 sequence (chain, as listed by the source mutant): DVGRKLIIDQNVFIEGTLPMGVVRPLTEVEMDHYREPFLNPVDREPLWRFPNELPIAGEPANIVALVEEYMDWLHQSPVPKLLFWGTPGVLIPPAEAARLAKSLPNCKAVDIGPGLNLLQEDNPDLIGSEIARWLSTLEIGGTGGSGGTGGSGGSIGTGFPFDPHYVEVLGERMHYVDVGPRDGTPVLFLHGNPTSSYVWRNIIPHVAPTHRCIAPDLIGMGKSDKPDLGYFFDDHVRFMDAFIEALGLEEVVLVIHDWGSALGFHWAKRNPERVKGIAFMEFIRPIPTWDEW
binder,measurement,value
ARETFQAFR (Free peptide titrated in the ITC assay; also called PEP1) [9mer peptide],Kd,5.3 mM
